In patent US20080015165A1, “NOVEL POLYPEPTIDE” (KYOWA HAKKO KOGYO CO., LTD., priority 1998, published 2008):

B1: Mouse Fuc-TIV: known mouse α1,3-fucosyltransferase expressed from pCDM8-mFT4 for comparison (protein, UniProt Q11127 1-433, looked up)
Alpha-(1,3)-fucosyltransferase …: MAPARQELQHESRCRPSRTVDAWRAAVATRGRHMETPGYRRRTRCGGWGLPRSVSSLAAVGLLCTALTTFICWGQLPPLPWASPAPQRLVGVLLWWEPFRGRGGYPKSPPDCSLRFNISGCRLLTDRAAYGEAQAVLFHHRDLVKELHDWPPPWGARERTDKALVLRVFDDQEGAVTLTGKALETVGSRPPGQRWVWMNFESPSHTPGLRGLAKDLFNWTLSYRTDSDVFVPYGFLYSRSDPTEQPSGLGPQLARKRGLVAWVVSNWNEHQARVRYYHQLSRHVSVDVFGRTGPGRPVPAIGLLHTVARYKFYLAFENSRHVDYITEKLWRNAFLAGAVPVVLGPDRANYERFVPRGAFIHVDDFPNAASLAAYLLFLDRNVAVYRRYFRWRRSFAVHITSFWDEQWCRTCQAVQTSGDQPKSIHNLADWFQR
B2: Human Fuc-TIII: known human α1,3-fucosyltransferase, previously cloned, used for comparison (protein, UniProt P21217 1-361, looked up)
3-galactosyl-N-acetylglucosami …: MDPLGAAKPQWPWRRCLAALLFQLLVAVCFFSYLRVSRDDATGSPRAPSGSSRQDTTPTRPTLLILLRTWPFHIPVALSRCSEMVPGTADCHITADRKVYPQADMVIVHHWDIMSNPKSRLPPSPRPQGQRWIWFNLEPPPNCQHLEALDRYFNLTMSYRSDSDIFTPYGWLEPWSGQPAHPPLNLSAKTELVAWAVSNWKPDSARVRYYQSLQAHLKVDVYGRSHKPLPKGTMMETLSRYKFYLAFENSLHPDYITEKLWRNALEAWAVPVVLGPSRSNYERFLPPDAFIHVDDFQSPKDLARYLQELDKDHARYLSYFRWRETLRPRSFSWALDFCKACWKLQQESRYQTVRSIAAWFT
B3: Fuc-TV: known human α1,3-fucosyltransferase, previously cloned, expressed in Namalwa cells (protein, UniProt Q11128 1-374, looked up)
4-galactosyl-N-acetylglucosami …: MDPLGPAKPQWLWRRCLAGLLFQLLVAVCFFSYLRVSRDDATGSPRPGLMAVEPVTGAPNGSRCQDSMATPAHPTLLILLWTWPFNTPVALPRCSEMVPGAADCNITADSSVYPQADAVIVHHWDIMYNPSANLPPPTRPQGQRWIWFSMESPSNCRHLEALDGYFNLTMSYRSDSDIFTPYGWLEPWSGQPAHPPLNLSAKTELVAWAVSNWKPDSARVRYYQSLQAHLKVDVYGRSHKPLPKGTMMETLSRYKFYLAFENSLHPDYITEKLWRNALEAWAVPVVLGPSRSNYERFLPPDAFIHVDDFQSPKDLARYLQELDKDHARYLSYFHWRETLRPRSFSWALAFCKACWKLQQESRYQTVRSIAAWFT
B4: Human Fuc-TVI: known human α1,3-fucosyltransferase, previously cloned, used for comparison (protein, UniProt P51993 1-359, looked up)
4-galactosyl-N-acetylglucosami …: MDPLGPAKPQWSWRCCLTTLLFQLLMAVCFFSYLRVSQDDPTVYPNGSRFPDSTGTPAHSIPLILLWTWPFNKPIALPRCSEMVPGTADCNITADRKVYPQADAVIVHHREVMYNPSAQLPRSPRRQGQRWIWFSMESPSHCWQLKAMDGYFNLTMSYRSDSDIFTPYGWLEPWSGQPAHPPLNLSAKTELVAWAVSNWGPNSARVRYYQSLQAHLKVDVYGRSHKPLPQGTMMETLSRYKFYLAFENSLHPDYITEKLWRNALEAWAVPVVLGPSRSNYERFLPPDAFIHVDDFQSPKDLARYLQELDKDHARYLSYFRWRETLRPRSFSWALAFCKACWKLQEESRYQTRGIAAWFT
B5: Fuc-TVII: known human α1,3-fucosyltransferase, previously cloned, expressed in Namalwa cells (protein, UniProt Q11130 1-342, looked up)
Alpha-(1,3)-fucosyltransferase …: MNNAGHGPTRRLRGLGVLAGVALLAALWLLWLLGSAPRGTPAPQPTITILVWHWPFTDQPPELPSDTCTRYGIARCHLSANRSLLASADAVVFHHRELQTRRSHLPLAQRPRGQPWVWASMESPSHTHGLSHLRGIFNWVLSYRRDSDIFVPYGRLEPHWGPSPPLPAKSRVAAWVVSNFQERQLRARLYRQLAPHLRVDVFGRANGRPLCASCLVPTVAQYRFYLSFENSQHRDYITEKFWRNALVAGTVPVVLGPPRATYEAFVPADAFVHVDDFGSARELAAFLTGMNESRYQRFFAWRDRLRVRLFTDWRERFCAICDRYPHLPRSQVYEDLEGWFQA

What was measured:
[1] = In vitro α1,3-fucosyltransferase activity, COS-1 cell lysate, pyridylaminated substrate, HPLC; format: biochemical; settings: activity of human Fuc-TVI for α2,3-sialylLNnT taken as 100; 25 μM substrate, 2 hours at 37° C.; normalized to transcript amount
Description: Each α1,3-fucosyltransferase expression plasmid (15 μg) was introduced into 1×10^7 COS-1 cells.
This introduction was performed by electroporation method using a gene pulser (manufactured by Bio-Rad) according to the Bio-Rad's instructional manual attached thereto. At this time, 1 μg of a luciferase expression vector, which was constructed by inserting β-actin promoter into a Hind III site of a vector pSVOA/L [Experimental Medicine, 7, 96, (1989)] was co-introduced as an index of gene transfer efficiency.
After the gene introduction, COS-1 cells were dispensed into three dishes for cell culture with a diameter of 15 cm and then cultured for 48 hours.
The cells in the remaining two dishes were collected, suspended in a solution (20 mM HEPES (pH 7.4), 2% TrironX-100), then ultrasonicated for a short time period, thereby preparing cell lysate. The protein concentration of the cell lysate was measured using a micro BCA protein assay reagent kit (manufactured by PIERCE).
The enzymatic activities of luciferase and α1,3-fucosyltransferase were measured using the cell lysate. […]
Each of the substrates was allowed to react in assay solution with or without GDP-Fuc (sugar donator), then analyzed with HPLC. […]
The products were detected using a fluorescent spectrum photometer FP-920 (JASCO Corporation) at excitation wavelength of 320 nm and emission wavelength of 400 nm. […]

[2] = Enzyme activity for a poly-N-acetyllactosamine sugar chain, Namalwa cell extract, HPLC; format: biochemical; settings: substrate S; for Production (%) P1 / Production (%) P2 / Production (%) P3: relative value, total of products P1, P2 and P3 by each enzyme = 100%
From the text: Using a poly-N-acetyllactosamine sugar chain, it was examined that to which GlcNAc in the sugar chains, human Fuc-TIX and 5 types of human α1,3-fucosyltransferase (Fuc-TIII, Fuc-TIV, Fuc-TV, Fuc-TVI, and Fuc-TVII) that had been cloned so far transferred fucose.
Control plasmid (pAMo) and the human Fuc-TIX expression plasmid pAMo-FT9 were introduced into Namalwa cells according to the method shown in Example 1 (3), thereby obtaining stable transformants.
Namalwa cells expressing each of the other 5 types of human α1,3-fucosyltransferases (Fuc-TIII, Fuc-TIV, Fuc-TV, Fuc-TVI, and Fuc-TVII) were obtained according to the previous report (Glycoconjugate J., 13, 802-812, Biochem. Biophys. Res. Commun., 237, 131-137, 1997).
The resultant transformants (about 1×10^7) were collected in microtubes (1.5 ml, manufactured by Eppendolf), followed by centrifugation at 550×g for 7 minutes to collect the cells.
The collected cells were washed with 0.9 ml of PBS. The washed cells were suspended in 100 μl of a solution which consisted of 20 mM HEPES (pH 7.2) and 1% TrironX-100, then allowed to stand at 4° C. for 10 minutes. Subsequently the cells were disrupted using a ultrasonicator (Bioruptor; manufactured by COSMO BIO CO., LTD.)
After disruption of the cells, each supernatant was obtained by centrifugation at 550×g for 7 minutes and used as an enzyme sample. A poly-N-acetyllactosamine sugar chain (Galβ1-4GlcNAcβ1-3Galβ1-4GlcNAcβ1-3Galβ1-4GlcNAc) consisting of 6 sugars was fluorescently labeled with 2-aminobenzamide to make a sugar chain (Galβ1-4GlcNAcβ1-3Galβ1-4GlcNAcβ1-3Galβ1-4GlcNAc-2AB: abbreviated as S in FIGS. 13 and 15, and table 3), which was used as a substrate
Florescent labeling was performed using a Signal™ 2-AB glycan labeling kit (manufactured by Oxford GlycoScience). A poly-N-acetyllactosamine sugar chain (Galβ1-4GlcNAcβ1-3Galβ1-4GlcNAcβ1-3Galβ1-4GlcNAc) was prepared according to WO98/03524.
Samples were allowed to react in 20 μl of an assay solution [50 mM cacodylate (pH 6.8), 5 mM ATP, 10 mM L-fucose, 75 μM […] (manufactured by SIGMA), 25 mM MnCl2, 15 μM fluorescently labeled sugar chain substrate, 6 μl of the cell lysate above] at 37° C. for 2 hours, followed by treatment at 100° C. for 3 minutes to stop the reaction. Next 200 μl of water was added to the samples, and the supernatant was obtained by centrifugation at 10,000×g for 5 minutes. Using an aliquot of the supernatant (10 μl), products were analyzed by HPLC under the following conditions.
HPLC: • Column—TSK-gel ODS-80TsQA column (4.6×250 mm; TOSOH CORPORATION) • Eluate—0.02 M ammonium acetate (pH 4.0) containing 7% methanol • Elution temperature—50° C. • Flow rate—1.0 ml/min. • Detection—Fluorescence spectrum photometer FB-920 (manufactured by JASCO Corporation) (excitation wavelength: 330 nm, radiation wavelength: 420 nm)

Row | Molecule | Relative activity of α1,3-fucosyltransferases for substrate LNT [1] | Production (%) P1 [2] | Production (%) P2 [2] | Production (%) P3 [2] | major product ([2]; extract of Namalwa cells expressing the enzyme)
1 | B1 | 0 |  |  |  | 
2 | B2 |  | 2.0% | 98.0% | 0.0% | 
3 | B3 |  | 7.5% | 92.5% | 0.0% | 
4 | B4 |  | 8.3% | 88.7% | 3.0% | 
5 | B5 |  | 0.0% | 0.0% | 0.0% | no product
